These results are taken from paper PMC4655838, “Versatility in phospho-dependent molecular recognition of the XRCC1 and XRCC4 DNA-damage scaffolds by aprataxin-family FHA domains” (DNA Repair, 2015).

Square brackets hold non-standard residues; d marks the D form. Ends that are not written are not given here. pT = C[C@@H](OP(=O)(O)O)[C@H](N)C(=O)O; pS = N[C@@H](COP(=O)(O)O)C(=O)O

For assay [1], the target named is aprataxin FHA domain (residues 1-105). In words: NMR titration; unlabelled XRCC1 peptide added to 92 μM 15N-labelled aprataxin FHA domain up to 1:4; 22 °C; 20 mM Na acetate pH 5.8, 50 mM NaCl, 2 mM DTT; SOFAST-HMQC; apparent Kd, mean of the fits for D37, V45, Q46, V61 and V63.
Assay [2] shares this target. The experiment in a line: ITC; peptide injected (30 x 10 ul) into FHA domain in the cell; 22 °C; 50 mM HEPES pH 7.5, 150 mM NaCl, 5 mM β-mercaptoethanol; XRCC1 peptides 1 mM into 100 μM protein, XRCC4 peptides 300 μM into 30 μM protein; single-site binding model. On the technique in general: In ITC the heat of successive injections is recorded.
Assay [3] deals with aprataxin FHA domain K38A (residues 1-105). The assay is described as above.

B1: XRCC1 515-529 peptide phosphorylated on Ser518, Thr519 and Thr523 (peptide)
peptide: YAG[pS][pT]DEN[pT]DSEEHQ-NH2
modifications: N-terminus assumed
SMILES: C[C@H](NC(=O)[C@@H](N)Cc1ccc(O)cc1)C(=O)NCC(=O)N[C@@H](COP(=O)(O)O)C(=O)N[C@H](C(=O)N[C@@H](CC(=O)O)C(=O)N[C@@H](CCC(=O)O)C(=O)N[C@@H](CC(N)=O)C(=O)N[C@H](C(=O)N[C@@H](CC(=O)O)C(=O)N[C@@H](CO)C(=O)N[C@@H](CCC(=O)O)C(=O)N[C@@H](CCC(=O)O)C(=O)N[C@@H](Cc1c[nH]cn1)C(=O)N[C@@H](CCC(N)=O)C(N)=O)[C@@H](C)OP(=O)(O)O)[C@@H](C)OP(=O)(O)O
B1: the Kd in assay [1] is < 1 µM. In assay [2], this molecule came in with a fold increase in binding over the di-phosphorylated peptide of 3 fold and a fold preference over the mono-phosphorylated (pT233) XRCC4 peptide of 5 fold. The molecule also gave a fold decrease in binding relative to the wild-type in assay [3] of 8.8 fold.

B2: XRCC1 515-529 peptide phosphorylated solely on Thr523 (peptide)
peptide: YAGSTDENTDSEEHQ
HELM: PEPTIDE1{Y.A.G.S.T.D.E.N.[C[C@@H](OP(=O)(O)O)[C@H](N[*:1])C(=O)[*:2]].D.S.E.E.H.Q.[am]}$$$$V2.0; N-terminus assumed
SMILES: C[C@H](NC(=O)[C@@H](N)Cc1ccc(O)cc1)C(=O)NCC(=O)N[C@@H](CO)C(=O)N[C@H](C(=O)N[C@@H](CC(=O)O)C(=O)N[C@@H](CCC(=O)O)C(=O)N[C@@H](CC(N)=O)C(=O)N[C@H](C(=O)N[C@@H](CC(=O)O)C(=O)N[C@@H](CO)C(=O)N[C@@H](CCC(=O)O)C(=O)N[C@@H](CCC(=O)O)C(=O)N[C@@H](Cc1c[nH]cn1)C(=O)N[C@@H](CCC(N)=O)C(N)=O)[C@@H](C)OP(=O)(O)O)[C@@H](C)O
As for B2, the Kd in assay [1] was 7 µM.

B3: XRCC4 229-237 peptide phosphorylated on Thr233 (peptide)
peptide: YDESTDEES
HELM: PEPTIDE1{Y.D.E.S.[C[C@@H](OP(=O)(O)O)[C@H](N[*:1])C(=O)[*:2]].D.E.E.S.[am]}$$$$V2.0; N-terminus assumed
SMILES: C[C@@H](OP(=O)(O)O)[C@H](NC(=O)[C@H](CO)NC(=O)[C@H](CCC(=O)O)NC(=O)[C@H](CC(=O)O)NC(=O)[C@@H](N)Cc1ccc(O)cc1)C(=O)N[C@@H](CC(=O)O)C(=O)N[C@@H](CCC(=O)O)C(=O)N[C@@H](CCC(=O)O)C(=O)N[C@@H](CO)C(N)=O
Turning to B3, the fold tighter binding than the XRCC1 pThr519 peptide in assay [2] came to 8 fold. In assay [3], this molecule displayed a fold decrease in binding relative to the wild-type of 3.2 fold.

B4: XRCC4 229-237 peptide phosphorylated on Ser232 and Thr233 (peptide)
peptide: YDESTDEES
HELM: PEPTIDE1{Y.D.E.[O=C([C@H](COP(=O)(O)O)N[*:1])[*:2]].[C[C@@H](OP(=O)(O)O)[C@H](N[*:1])C(=O)[*:2]].D.E.E.S.[am]}$$$$V2.0; N-terminus assumed
SMILES: C[C@@H](OP(=O)(O)O)[C@H](NC(=O)[C@H](COP(=O)(O)O)NC(=O)[C@H](CCC(=O)O)NC(=O)[C@H](CC(=O)O)NC(=O)[C@@H](N)Cc1ccc(O)cc1)C(=O)N[C@@H](CC(=O)O)C(=O)N[C@@H](CCC(=O)O)C(=O)N[C@@H](CCC(=O)O)C(=O)N[C@@H](CO)C(N)=O
B4 had a fold increase in binding over the mono-phosphorylated peptide in assay [2] of 8 fold. The same molecule registered a fold decrease in binding relative to the wild-type in assay [3] of 7.6 fold.

B5: XRCC4 229-237 peptide phosphorylated on Ser232, Thr233 and Ser237 (peptide)
peptide: YDE[pS][pT]DEE[pS]-NH2
modifications: N-terminus assumed
SMILES: C[C@@H](OP(=O)(O)O)[C@H](NC(=O)[C@H](COP(=O)(O)O)NC(=O)[C@H](CCC(=O)O)NC(=O)[C@H](CC(=O)O)NC(=O)[C@@H](N)Cc1ccc(O)cc1)C(=O)N[C@@H](CC(=O)O)C(=O)N[C@@H](CCC(=O)O)C(=O)N[C@@H](CCC(=O)O)C(=O)N[C@@H](COP(=O)(O)O)C(N)=O
On to B5, for which the fold decrease in binding relative to the wild-type in assay [3] worked out at 9.3 fold.

B6: XRCC1 515-529 peptide phosphorylated on Thr519 (peptide)
peptide: YAGSTDENTDSEEHQ
HELM: PEPTIDE1{Y.A.G.S.[C[C@@H](OP(=O)(O)O)[C@H](N[*:1])C(=O)[*:2]].D.E.N.T.D.S.E.E.H.Q.[am]}$$$$V2.0; N-terminus assumed
SMILES: C[C@H](NC(=O)[C@@H](N)Cc1ccc(O)cc1)C(=O)NCC(=O)N[C@@H](CO)C(=O)N[C@H](C(=O)N[C@@H](CC(=O)O)C(=O)N[C@@H](CCC(=O)O)C(=O)N[C@@H](CC(N)=O)C(=O)N[C@H](C(=O)N[C@@H](CC(=O)O)C(=O)N[C@@H](CO)C(=O)N[C@@H](CCC(=O)O)C(=O)N[C@@H](CCC(=O)O)C(=O)N[C@@H](Cc1c[nH]cn1)C(=O)N[C@@H](CCC(N)=O)C(N)=O)[C@@H](C)O)[C@@H](C)OP(=O)(O)O
On to B6, for which, in assay [1], the Kd was 7 µM. Also, in assay [3], the fold decrease in binding relative to the wild-type was 2.7 fold.

B7: XRCC1 515-529 peptide phosphorylated on Ser518 and Thr519 (peptide)
peptide: YAGSTDENTDSEEHQ
HELM: PEPTIDE1{Y.A.G.[O=C([C@H](COP(=O)(O)O)N[*:1])[*:2]].[C[C@@H](OP(=O)(O)O)[C@H](N[*:1])C(=O)[*:2]].D.E.N.T.D.S.E.E.H.Q.[am]}$$$$V2.0; N-terminus assumed
SMILES: C[C@H](NC(=O)[C@@H](N)Cc1ccc(O)cc1)C(=O)NCC(=O)N[C@@H](COP(=O)(O)O)C(=O)N[C@H](C(=O)N[C@@H](CC(=O)O)C(=O)N[C@@H](CCC(=O)O)C(=O)N[C@@H](CC(N)=O)C(=O)N[C@H](C(=O)N[C@@H](CC(=O)O)C(=O)N[C@@H](CO)C(=O)N[C@@H](CCC(=O)O)C(=O)N[C@@H](CCC(=O)O)C(=O)N[C@@H](Cc1c[nH]cn1)C(=O)N[C@@H](CCC(N)=O)C(N)=O)[C@@H](C)O)[C@@H](C)OP(=O)(O)O
With B7, the Kd in assay [1] was determined as 2 µM. Moreover, the fold increase in binding over the mono-phosphorylated peptide in assay [2] stood at 11 fold. This molecule yielded a fold decrease in binding relative to the wild-type in assay [3] of 8.5 fold.
